Test results published in PMC9122904, “Insights into the client protein release mechanism of the ATP-independent chaperone Spy” (Nature Communications, 2022).

How the values were obtained:
Test in all cases: BLI; Octet RED96; client biotinylated and loaded on streptavidin sensors; Spy or Spy variant in solution at 0.25, 0.5, 1, 1.5 and 2 μM; 40 mM HEPES, 150 mM NaCl, pH 7.5; Kd calculated as koff/kon
Conditions in all cases: both partners purified
Spy_(29-124) = biological target: T1, Spy_(29-124) (UniProt P77754 52-147)
T1 construct: also called termini-free Spy; source: E. coli BL21 (DE3), purified (Ni-NTA, cation exchange, SEC); not shown: His6, N-terminal, cleaved; SUMO, N-terminal, cleaved
T1 sequence (looked up): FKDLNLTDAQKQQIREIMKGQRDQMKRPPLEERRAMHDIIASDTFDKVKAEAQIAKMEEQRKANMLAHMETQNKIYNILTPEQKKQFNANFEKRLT
Summary of the method: (§1)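 Association was recorded with an Octet RED96 as streptavidin sensors carrying client proteins, biotinylated with EZ-link NHS-biotin at a 1:1 molar ratio, sat in 40 mM HEPES, 150 mM NaCl, pH 7.5 with 0.25 to 2 μM of the analyte protein (0.25, 0.5, 1, 1.5 and 2 μM). Dissociation followed after transfer to analyte-free buffer. Both wavelength-shift phases were fitted in SigmaPlot 12.0 to obtain koff and the observed association rate, whose dependence on analyte concentration yielded kon, with Kd defined as koff divided by kon.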

Spy_(29-130) = biological target: T2, Spy_(29-130) (UniProt P77754 52-153)
T2 construct: Spy chaperone, residues 29-130; source: E. coli BL21 (DE3), purified (Ni-NTA, cation exchange, SEC); not shown: His6, N-terminal, cleaved; SUMO, N-terminal, cleaved
T2 sequence (looked up): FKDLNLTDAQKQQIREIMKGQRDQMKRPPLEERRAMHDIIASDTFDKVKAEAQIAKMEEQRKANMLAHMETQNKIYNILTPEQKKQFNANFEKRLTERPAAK
Summary of the method: as §1

Spy_(29-138) = biological target: T3, Spy_(29-138) (UniProt P77754 52-161)
T3 construct: source: E. coli BL21 (DE3), purified (Ni-NTA, cation exchange, SEC); not shown: His6, N-terminal, cleaved; SUMO, N-terminal, cleaved
T3 sequence (looked up): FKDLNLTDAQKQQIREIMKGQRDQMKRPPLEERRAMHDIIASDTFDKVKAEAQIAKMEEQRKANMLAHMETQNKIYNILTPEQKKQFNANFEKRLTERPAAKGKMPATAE
Summary of the method: as §1

Spy_(24-124) = biological target: T4, Spy_(24-124) (UniProt P77754 47-147)
T4 construct: source: E. coli BL21 (DE3), purified (Ni-NTA, cation exchange, SEC); not shown: His6, N-terminal, cleaved; SUMO, N-terminal, cleaved
T4 sequence (looked up): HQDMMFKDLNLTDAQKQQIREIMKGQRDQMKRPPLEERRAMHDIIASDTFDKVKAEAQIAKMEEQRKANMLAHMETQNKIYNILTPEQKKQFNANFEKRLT
Summary of the method: as §1

Spy_(27-127) = biological target: T5, Spy_(27-127) (UniProt P77754 50-150)
T5 construct: Spy chaperone, residues 27-127; source: E. coli BL21 (DE3), purified (Ni-NTA, cation exchange, SEC); not shown: His6, N-terminal, cleaved; SUMO, N-terminal, cleaved
T5 sequence (looked up): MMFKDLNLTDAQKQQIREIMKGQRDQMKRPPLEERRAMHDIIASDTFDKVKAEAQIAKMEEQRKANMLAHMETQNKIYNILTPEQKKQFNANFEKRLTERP
Summary of the method: as §1

Spy_(21-130) = biological target: T6, Spy_(21-130) (UniProt P77754 44-153)
T6 construct: Spy chaperone, residues 21-130; source: E. coli BL21 (DE3), purified (Ni-NTA, cation exchange, SEC); not shown: His6, N-terminal, cleaved; SUMO, N-terminal, cleaved
T6 sequence (looked up): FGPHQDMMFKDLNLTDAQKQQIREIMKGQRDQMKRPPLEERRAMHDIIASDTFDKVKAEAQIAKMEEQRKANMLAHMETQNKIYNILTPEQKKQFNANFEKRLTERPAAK
Summary of the method: as §1

[1] = biological target: T7, Spy wild type (Spy_(1-138)) (UniProt P77754 24-161)
T7 construct: Spy, ATP-independent periplasmic chaperone; also called WT; wt; source: E. coli BL21 (DE3), purified (Ni-NTA, cation exchange, SEC); not shown: His6, N-terminal, cleaved; SUMO, N-terminal, cleaved
T7 sequence (looked up): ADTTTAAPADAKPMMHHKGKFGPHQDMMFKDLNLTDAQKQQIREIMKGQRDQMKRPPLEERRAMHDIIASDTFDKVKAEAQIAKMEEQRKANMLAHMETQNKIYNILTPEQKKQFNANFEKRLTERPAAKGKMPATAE
Summary of the method: as §1

Spy_(24-130) = biological target: T8, Spy_(24-130) (UniProt P77754 47-153)
T8 construct: Spy chaperone, residues 24-130; source: E. coli BL21 (DE3), purified (Ni-NTA, cation exchange, SEC); not shown: His6, N-terminal, cleaved; SUMO, N-terminal, cleaved
T8 sequence (looked up): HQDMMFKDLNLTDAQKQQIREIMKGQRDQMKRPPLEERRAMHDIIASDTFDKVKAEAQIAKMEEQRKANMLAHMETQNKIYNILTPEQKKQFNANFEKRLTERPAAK
Summary of the method: as §1

kon (Spy_(29-124)): 273000 M⁻¹ s⁻¹ | kon (Spy_(29-130)): 283000 M⁻¹ s⁻¹ | kon (Spy_(29-138)): 286000 M⁻¹ s⁻¹ | kon (Spy_(24-124)): 258000 M⁻¹ s⁻¹ | kon (Spy_(27-127)): 312000 M⁻¹ s⁻¹ | kon (Spy_(21-130)): 187000 M⁻¹ s⁻¹ | kon [1]: 276000 M⁻¹ s⁻¹ | kon (Spy_(24-130)): 210000 M⁻¹ s⁻¹
B1: Im7 H40W L53A I54A (natural protein)
chain: MELKNSISDYTEAEFVQLLKEIEKENVAATDDVLDVLLEWFVKITEHPDGTDAAYYPSDNRDDSPEGIVKEIKEWRAANGKPGFKQG
modifications: biotin (EZ-link NHS-biotin, 1:1 molar ratio of biotin to protein)
notes: Im7 (colicin E7 immunity protein) with H40W L53A I54A; Spy was made with an N-terminal His6-SUMO tag that was cleaved; also called Im7AAW; partially folded client; source: purified by a similar procedure to Spy
